Test results from patent publication US20050176632A1 (published 2005).

B1: snake venom MIT1 (ligand)
chain: AVITGACERDLQCGKGTCCAVSLWIKSVRVCTPVGTSGEDCHPASHKIPFSGQRMHHTCPCAPNLACVQTSPKKFKCLSK
B2: human type ZAQ ligand mature peptide (type G, 86 amino acid residues) (ligand)
chain: AVITGACERDVQCGAGTCCAISLWLRGLRMCTPLGREGEECHPGSHKVPFFRKRKHHTCPCLPNLLCSRFPDGRYRCSMDLKNINF

Legend:
[1] = target: human type I5E receptor expressed on CHO cells (I5E-4 cells) (human, UniProt Q8NFJ6 1-384); assay: cell-based or functional assay
human type I5E receptor expressed on CHO cells (I5E-4 cells), sequence (Q8NFJ6 whole entry): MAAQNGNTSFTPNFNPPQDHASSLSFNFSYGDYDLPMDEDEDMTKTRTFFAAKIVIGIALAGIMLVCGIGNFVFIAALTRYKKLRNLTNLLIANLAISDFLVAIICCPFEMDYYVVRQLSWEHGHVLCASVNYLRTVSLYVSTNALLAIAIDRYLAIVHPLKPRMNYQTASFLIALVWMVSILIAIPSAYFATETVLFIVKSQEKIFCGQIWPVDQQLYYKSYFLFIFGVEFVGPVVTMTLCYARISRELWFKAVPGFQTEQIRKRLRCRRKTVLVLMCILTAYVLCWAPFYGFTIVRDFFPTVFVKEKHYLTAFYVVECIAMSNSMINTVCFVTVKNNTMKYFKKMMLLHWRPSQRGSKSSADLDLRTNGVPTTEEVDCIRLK

[2] = target: human type ZAQ (G protein-conjugated receptor protein ZAQ) expressed on CHO cells (ZAQC-B1 cells) (human, UniProt Q8TCW9 1-393); assay: cell-based or functional assay
human type ZAQ (G protein-conjugated receptor protein ZAQ) expressed on CHO cells (ZAQC-B1 cells), sequence (Q8TCW9 whole entry): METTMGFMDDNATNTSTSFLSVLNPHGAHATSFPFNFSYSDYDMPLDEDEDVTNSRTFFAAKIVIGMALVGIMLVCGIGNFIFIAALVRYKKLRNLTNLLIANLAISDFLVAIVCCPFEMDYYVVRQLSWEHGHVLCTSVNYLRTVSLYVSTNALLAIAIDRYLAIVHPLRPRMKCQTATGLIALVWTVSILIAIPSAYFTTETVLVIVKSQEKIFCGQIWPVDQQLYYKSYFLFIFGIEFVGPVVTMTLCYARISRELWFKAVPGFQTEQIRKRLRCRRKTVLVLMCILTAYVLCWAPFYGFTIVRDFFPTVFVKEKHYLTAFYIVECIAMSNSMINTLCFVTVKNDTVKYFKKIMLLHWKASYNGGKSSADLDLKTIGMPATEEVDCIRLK

| Binder | action to activate a human type I5E receptor, relative to the human type ZAQ ligand peptide (FLIPR) [1] | action to activate an I5E receptor, relative to the human type Bv8 peptide (FLIPR) [1] | action to activate a ZAQ receptor, relative to the human type ZAQ ligand peptide (FLIPR) [2] | EC50 of the increase of intracellular calcium concentration in ZAQ expression CHO cells (ZAQC-B1 cells), FLIPR [2] [nM] |
| --- | --- | --- | --- | --- |
| B1 | ~100 times greater than the human type ZAQ ligand peptide | 10 times greater than the human type Bv8 peptide | 10 times greater than the human type ZAQ ligand peptide | – |
| B2 | – | – | – | 0.096 |
